Experimental data reported in US11440938B2, “Stabilized minimal coiled-coil mimetics” (NEW YORK UNIVERSITY, priority 2015, dated 2022).
“And” between values parts separate entries of the source, which are not always exact repeats. Equal values may be shown once. Read-outs that look alike come from different tables or passages of the source. Bridges are numbered along the chain shown (N, C = ends). Where no end group is shown, it is not given here.

Assays:
[1] = Circular dichroism spectroscopy of helical conformational stability; assay type: physicochemical; conditions: 50 mM aqueous KF, pH 7.4, 20 μM peptide
[2] = target: T1, fluorescein-labeled N2B peptide (NHR2-binding motif of E-proteins) (Homo sapiens, UniProt Q99081); assay: Fluorescence polarization direct binding assay with fluorescein-labeled N2B peptide (flu-N2B); conditions: 100 nM flu-N2B, 25° C., 10 mM Tris 20 mM NaCl pH 7.4, 0.1% pluronic F-68, triplicate, listed as NHR2482-551, read-out: Kd (binding affinity to fluorescein-labeled N2B peptide)
[3] = target: T1, fluorescein-labeled N2B peptide (NHR2-binding motif of E-proteins); conditions: Sun et al., Nature 500:93 (2013); read-out: KD with flu-N2B, literature reported; cited from earlier work

Molecule	Helical character by CD (in words) [1]	Minimum at 222/208 (ratio of CD bands) [1]	|θ222| (CD ellipticity at 222 nm) [1]	Kd [2]	Kd [3]
Ac-LWERIARLR-NH2 [B]	nonhelical signatures	–	–	–	–
Ac-ELAELEWRL-NH2	nonhelical signatures	–	–	–	–
AB-1: HBS-A helix joined to peptide B by a GGSSGG linker; N-terminal HBS constraint (SEQ ID NO:3) (XELXELEWRLGGSSGGLAERIARLR; not fully specified; HBS constraint; Hydrogen bond surrogate peptide AB-1; (1)..(1) Xaa at position 1 is pentenoic acid; (4)..(4) Xaa at position 4 is N-allylalanine)	weakly helical signature	0.73	8475	–	–
ECAELEWRLGGSSGGLAERIARCR (disulfide 2-23; not fully specified (N-terminus, C-terminus)) [AB-3]	did not provide significant helical stabilization	0.62	9460	–	–
cyclo(GGSSGGELAELEWRLGGSNGGLAERIARLR (macrocyclic; Cyclic peptide AB-2; (1)..(1) Position 1 and 30 are linked by a peptide bond to form a cyclic peptide; (30)..(30) Position 1 and 30 are linked by a peptide bond to form a cyclic peptide)	minimal helicity	0.62	8950	–	–
NHR2: native GST-tagged NHR2 coiled-coil domain (482-551) of AML1-ETO, expressed in E. coli (protein, UniProt Q06455 482-551, looked up, fragment, NHR2 coiled-coil domain GST tag, native GST-tagged NHR2 coiled-coil domain (482-551) of AML1-ETO, expressed in E. coli) ERAKMERTVAEAKRQAAEDALAVINQQEDSSESCWNCGRKASETCSGCNTARYCGSFCQHKDWEKHHHIC	–	–	–	356 µM and 363 µM	380 ± 18 µM
